Data: patent publication US7919461B2, “Erythropoietin receptor peptide formulations and uses” (Affymax, Inc., priority 2005, dated 2011)
Entries after “also recorded” stand apart in the source; their conditions may differ. Bridge positions count the residues as written; N and C are the ends. Square brackets hold non-standard residues; d marks the D form. Ends that are not written are not given here. 1Nal = N[C@@H](Cc1cccc2ccccc12)C(=O)O; Sar = CNCC(=O)O

Assays:
[1] = Pharmacology studies in animals, stimulation of erythropoiesis; assay type: in vivo, mice; rats, dogs, rabbits and monkeys
[2] = Pharmacokinetic studies in rats; assay type: in vivo; settings: species not stated
[3] = Phase 1 single IV dose study in normal healthy volunteers, pharmacodynamics; assay type: in vivo, human
Text: (§1) Peptide I has been tested in […] in one Phase 1 study. This first-in-human study with Peptide I was a randomized, double-blind, placebo-controlled, single-dose, IV, escalating dose, safety and tolerability trial. The primary objectives of the study were to evaluate the safety and pharmacokinetics of Peptide I, and to establish a pharmacologically active dose (PAD). Cohorts of seven male volunteers were scheduled to receive single doses of Peptide I or placebo in a 5:2 ratio. Cohorts were to be added at increasing dose levels until a PAD, as determined by an increase in hemoglobin from baseline values, was observed, at which point the dose level identified as the PAD would be repeated in another cohort of volunteers.
(§2) The study was initiated in four cohorts were enrolled in a consecutive manner at Peptide I doses of 0.025, 0.05, 0.1 mg/kg, and […], respectively (single dose per cohort). […] As such, the study was terminated.

[4] = Phase 1 single IV dose study in normal healthy volunteers, pharmacokinetics; assay type: in vivo, human; settings: dose normalized, ANOVA
Text: as §1, §2
In the 0.025 mg/kg dose group, Peptide I concentration peaked between 5 and 15 minutes, while tmax approached 1 hour for the 0.1 mg/kg dose.

[5] = Phase 1 single IV dose study in normal healthy volunteers, safety; assay type: in vivo, human
Text: as §1, §2

[6] = Phase II multi-dose once-monthly SC study in pre-dialysis chronic kidney disease patients; assay type: in vivo, human
Description: A multi-center, open-label, sequential dose-finding phase II clinical trial involving patients with chronic kidney disease was performed in order to evaluate the safety and pharmacodynamics of multiple doses of once-monthly (Q4W) subcutaneous (SC) delivery of Peptide I (SEQ ID NO:2). A total of 60 erythropoiesis-stimulating-agent-naïve, pre-dialysis, chronic kidney disease (CKD) patients [hemoglobin (Hgb) levels 9.0-10.9 g/dL, ferritin >100 ug/L and transferrin saturation (TSAT)>20%] were enrolled into three dose cohorts. Patients received up to six once-monthly SC drug doses. The starting doses were 0.025 mg/kg (n=15), 0.050 mg/kg (n=30) and 0.075 mg/kg (n=15). Dose titration was allowed after the first dose, based on patient Hgb levels.
Dose titrations were allowed after the patient's initial dose. Dose adjustments were ±25% of the previous dose, depending on the patient's measured hemoglobin (Hgb) level.

Substance: PEGylated homodimer of peptide monomers (AcG)GLYACHMGPIT(1-nal)VCQPLR(MeG)K (SEQ ID NO: 2); fully synthetic EPO receptor agonist (Ac-GGLYACHMGPIT[1Nal]VCQPLR[Sar]K; disulfide 6-15 (inferred); not fully specified (residue 1); printed as (AcG)GLYACHMGPIT(1-nal)VCQPLR(MeG)K; also: homodimer via branched linker on K21 ε-amino group, PEG attached to linker) [Peptide I]
- rise in reticulocytes and RBCs as measured by hemoglobin levels ([1]; rats and monkeys): dose proportional
- stimulation of erythropoiesis ([1]; single or repeat dose, mice, rats (normocythemic and nephrectomized), dogs, rabbits, monkeys): dose-dependent activity
- Biodistribution [2]: primarily to the plasma fraction
- increase in hemoglobin associated with the PAD ([3]; 0.1 mg/kg): ≥ 1.0 g/dL
- average maximum increase in hemoglobin from baseline ([3]; 0.1 mg/kg, 10 recipients): 1.36 ± 0.39 g/dL
- average hemoglobin levels at Day 42 ([3]; 0.1 mg/kg, Day 42): returned to baseline
- difference in change from baseline hemoglobin versus placebo ([3]; 0.1 mg/kg, Day 42 as throughout the study): ≥ 0.5 g/dL
- time of maximum reticulocyte counts postdose ([3]; all dose cohorts): approximately 7 days
- changes in other pharmacodynamic parameters (red cell count, hematocrit, ferritin, reticulocyte hemoglobin content, soluble transferrin receptor, EPO) ([3]; human, in vivo): consistent with stimulation of erythropoiesis
- hemoglobin response and change from baseline (mean and maximum) ([3]; over 28 days post-dose): dose-dependent increases
- Reticulocyte count (absolute number and percent) ([3]; single IV 0.025, 0.05, 0.1 mg/kg): dose-dependent increase
- pharmacologically active dose (PAD) ([3]; single IV dose, NHV): 0.1 mg/kg
- Serum EPO levels ([3]; with increasing dose): transiently decreased
- AUC(0-infinity) relationship with dose [4]: evidence of non-linearity at the highest dose of 0.1 mg/kg; also recorded: nonlinear at the 0.1 mg/kg dose
- abdominal pain, frequency ([5]; Peptide I recipients): 10.0%
- headache, frequency ([5]; Peptide I recipients): 20.0%
- nasopharyngitis, frequency ([5]; Peptide I recipients): 10.0%
- nausea, frequency ([5]; Peptide I recipients): 10.0%
- subjects who experienced adverse events ([5]; Peptide I recipients): 11 of 20
- Serious Adverse Events ([5]; human, in vivo): no Serious Adverse Events
- antibodies specific to Peptide I ([5]; human, in vivo): None of the subjects in this trial developed antibodies
- vital signs, electrocardiograms (ECGs) or laboratory values ([5]; human, in vivo): no clinically significant changes
- safety and tolerability ([5]; single IV doses of 0.025, 0.05, or 0.1 mg/kg): safe and well tolerated
- patients reporting adverse events ([6]; 60 patients): 18%
- injection site reaction ([6]; SC): no injection site reaction was reported
- hemoglobin (Hgb) increase ([6]; dosed monthly): sustained increase in hemoglobin (Hgb) up to week 22
- number of adverse events ([6]; human, in vivo): 36
- relation of adverse events to study drug ([6]; human, in vivo): not related to study drug
- tolerability of multiple monthly subcutaneous injections ([6]; human, in vivo, sc): well-tolerated
- correction of anaemia ([6]; monthly dosing): correction of anaemia in patients by week eight
